Measured values taken from paper PMC7101348, “Modulation of BIN2 kinase activity by HY5 controls hypocotyl elongation in the light” (Nature Communications, 2020).

Assays:
[1] = molecular target: T1, His-BIN2 (full-length BIN2) (Arabidopsis thaliana, UniProt Q39011 1-380); assay: cell-based or functional assay
T1 sequence (looked up): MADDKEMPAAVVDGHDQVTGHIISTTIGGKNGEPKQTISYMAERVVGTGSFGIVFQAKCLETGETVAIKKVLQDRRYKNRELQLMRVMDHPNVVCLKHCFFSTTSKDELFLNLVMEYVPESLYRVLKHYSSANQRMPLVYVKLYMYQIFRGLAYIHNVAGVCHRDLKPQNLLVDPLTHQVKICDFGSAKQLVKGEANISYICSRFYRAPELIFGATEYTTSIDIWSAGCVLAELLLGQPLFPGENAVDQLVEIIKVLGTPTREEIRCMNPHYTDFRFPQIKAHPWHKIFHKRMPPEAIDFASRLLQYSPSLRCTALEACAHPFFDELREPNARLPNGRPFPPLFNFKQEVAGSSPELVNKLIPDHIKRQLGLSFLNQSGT

[2] = molecular target: T1, His-BIN2 (full-length BIN2); assay: pull-down; 1 μg GST-HY5 and 1 μg His-BIN2 in 1 ml binding buffer (25 mM Tris-Cl pH 7.5, 100 mM NaCl, 0.1% NP40), 4 °C; GST beads; washed with 25 mM Tris-Cl pH 7.5, 500 mM NaCl; blots with anti-GST and anti-His; conditions: both partners purified

B1: GST-HY5-C (HY5 aa 78-168) (domain or fragment, Arabidopsis thaliana, UniProt O24646 78-168, looked up)
chain: RKRGRTPAEKENKRLKRLLRNRVSAQQARERKKAYLSELENRVKDLENKNSELEERLSTLQNENQMLRHILKNTTGNKRGGGGGSNADASL
- in vitro kinase assay: BIN2-mediated phosphorylation of BZR1 with recombinant C-terminal domain of HY5 (HY5-C) added, against the control [1]: ~2 fold

B2: GST-HY5 (full-length HY5, HY5-F) (natural protein, Arabidopsis thaliana, UniProt O24646 1-168, looked up)
chain: MQEQATSSLAASSLPSSSERSSSSAPHLEIKEGIESDEEIRRVPEFGGEAVGKETSGRESGSATGQERTQATVGESQRKRGRTPAEKENKRLKRLLRNRVSAQQARERKKAYLSELENRVKDLENKNSELEERLSTLQNENQMLRHILKNTTGNKRGGGGGSNADASL
- in vitro kinase assay: BIN2-mediated phosphorylation of BZR1 with recombinant full-length HY5 (HY5-F) added, against the control [1]: ~2 fold

B3: GST-HY5-M (HY5 L137D) (natural protein, Arabidopsis thaliana, UniProt O24646 1-168, looked up)
chain: MQEQATSSLAASSLPSSSERSSSSAPHLEIKEGIESDEEIRRVPEFGGEAVGKETSGRESGSATGQERTQATVGESQRKRGRTPAEKENKRLKRLLRNRVSAQQARERKKAYLSELENRVKDLENKNSELEERLSTDQNENQMLRHILKNTTGNKRGGGGGSNADASL
notes: HY5, Arabidopsis, with Leu137 changed to Asp; Probably full-length HY5; also called mutated HY5; source: recombinant protein, purified
- binding result [2]: binds
